Laboratory results published in patent US20260167738A1 (published 2026).

B1: 1H10 (antibody, V domains shown)
VH: QVQLVQSGAEVKKPGASVKVSCKGSGYIFTSYDMHWVRQAPGQGLEWMGIIDPSGGSTSYAQKFQGRVTMTRDTSMSTVYMELSSLRSEDTAVYYCTRDYSWSYFDYWGQGTLVTVSS
VL: AIQMTQSPSSLSASVGDRVTITCRASQGIRIYLGWYQQKPGKAPKLLIYATSSLQSGVPSRFSGSGSGTDFTLTISSLQPEDFATYYCLQDYNYPWTFGQGTKVEIK
B2: 1H10 antibody (antibody, V domains shown)
VH: QVQLVQSGAEVKKPGASVKVSCKGSGYIFTSYDMHWVRQAPGQGLEWMGIIDPSGGSTSYAQKFQGRVTMTRDTSMSTVYMELSSLRSEDTAVYYCTRDYSWSYFDYWGQGTLVTVSS
VL: AIQMTQSPSSLSASVGDRVTITCRASQGIRIYLGWYQQKPGKAPKLLIYATSSLQSGVPSRFSGSGSGTDFTLTISSLQPEDFATYYCLQDYNYPWTFGQGTKVEIK
B3: 2D3 antibody (antibody, V domains shown)
VH: EVQLLESGGGLVQPGGSLSLSCAASGFTFSIYAMSWVRQAPGKGLEWVSAISDSGGTTYYADSVKGRFTISRDNSKNMLYLEMNSLRAEDTAIYYCAKRTRYFNGMDVWGQGTTVTVSS
VL: EIVMTQSPATLSLSPGERATLSCRASQSGSSSFLSWYQQKPGQAPRLLIYGASTRATGIPARFSGSGSGTDFTLTISSLQPEDFAVYYCQQDYNLPFTFGPGTKVDIK

Assays:
CD33ΔE2 = assay: SPR (Biacore)
[1] = molecular target: full-length human CD33 (CD33^FL) (UniProt P20138 18-364); assay: SPR (Biacore)
Chain of full-length human CD33 (CD33^FL) (P20138 18-364): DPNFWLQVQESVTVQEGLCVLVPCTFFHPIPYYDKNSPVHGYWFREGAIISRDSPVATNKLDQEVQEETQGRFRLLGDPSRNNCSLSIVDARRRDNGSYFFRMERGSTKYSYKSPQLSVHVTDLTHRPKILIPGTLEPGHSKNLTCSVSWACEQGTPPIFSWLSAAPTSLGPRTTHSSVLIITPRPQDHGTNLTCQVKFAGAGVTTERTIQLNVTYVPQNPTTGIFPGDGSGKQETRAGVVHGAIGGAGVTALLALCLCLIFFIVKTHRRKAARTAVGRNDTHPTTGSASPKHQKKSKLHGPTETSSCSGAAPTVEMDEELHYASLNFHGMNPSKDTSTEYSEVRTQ

| Binder | Kd (CD33ΔE2) | Kd [1] |
| --- | --- | --- |
| B1 | 0.136 nM | – |
| B2 | – | 3.71 nM |
| B3 | – | 4.89 nM |
